The series in a line: label from the status in PepcDB records.
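Note: failed if final PepcDB status was selected cloned or expressed and not failed if soluble or beyond.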

For the sequence “MTYKVLHVGAGGFGERWCDTFLPSNNSDGTIEVVGLVDIDARALEIGRKHLGLKAKQCFTSAAQAFKAVDADFCTIVIPPALHEGIVDLALERGMHILSEKPIAATMEASVRIADKVRVAGRKMAVTMSHRFDQDKSTLRALVSDEALGRVNTVSCRFAGDYRAYDSWGRFRHEMIHPMLIEGAVHHLDIMADLAGAPCTSIYARSWKPEWAEYKGETDVMVLMDFANGAHGVYEGSSAQATGLNDWTFEYVRVEAASGTAILDHREVEVFHRDPKRIYQKNRHGKGQQVSLLGGKKWKNSLLIEQFCHWLDGGPPMATNVEDNLQSVALIFSAIESARLGQPVKVQEFLQSFRKSASIETQ”, the protein production entry is recorded as “failed”.

As to “MTYMYDHDHIPKHITATIWEHLQRENPNFFKEYNKRCELVRQIVTLNDLLAQQIDLMQRLSQLDVGTTAPVTKLQEPNDHHHDEVQTLEQWLETNGFANIEDTFLCLSDLVDAPVTEVQKPKDKDQSCDQWINGSNDLASIEETVSSLINPSPFAETPQSEPPGLRYDTDCACITATSNLVTWVYDPSGDNKSGVEISSERRFGANISLERRRPREAGFTEQRPPSVLDGGRITGPLSSEPTMTH”, the protein production entry is “failed”.

“MTYQQAGRIAVIKRILGWVIFIPSVLSTLISVLKFMYEHSEKKPGIDAVMMDFAHVMIEMMRFNTPFLNFFWYNSPLPDFHHSLNIGFWIIFILVFVGMALQASGARMARQAKFLREGIEDQLILEQAKGADGLTREQLAERIVVPRHTILVQYFPLYVLPVIVIVIGYFFFSLLGFL”: the protein production result was “failed”.

In the case of “MVAACKTMLTQIYEVATPAEAEAISVIGVDHVGVLVGDGAFPRELPVQKALAVMKMVRAPSVVSALFLSADVALIERMARELDPPIVHLGASSELLTPDLVVALRKSLPKTKFMRSVPVTGPEAVGVAQAYDGVVDWILLDSHRTGDVQIGAQGVTHDWSISRTIVESVRTPVILAGGLGPDNVKEAIRSVRPAGVDSKTRTDREGTHSKDLRKVEAFYRAATSG”, the protein production result is recorded as “failed”.

“MVACRVRLGRHQGARAGRTVCPKHRLRARDAGSRECAALSAGCGRMGRMSEQSLPDGVRPQNADALPEYAERVLDMTELIPPGRVMTYGDVAEYLEEGGPRQVGRVMSLYGGGVPWWRVVRADGVLLAGHELEALDRYREEGTPLKEASRAAEGHLPRLDLKRARWDGEGRPQGHGGRAQGHT”: the protein production entry is recorded as “failed”.

Consider “MVAGRRKVVPGLVLLCLGALLARSLSVLIGINELLLAIALGAVLVNTVGIPERFRHGTATYNIWLAAGIVLLGSSLTVGMIIEVGATVLLLLVAAVTLTLVTVEVLARNVAGVTDRFGSLLAAGAGICGVSAVAAVGGAVRAKEMHIAYAAGVVLLVDAVTIVVYPIVGAVLDLPDVVFGVWAGVSMLSTGPVVAVGFAHSEVAGQWATITKLARNALIGVVALGYASYYARRGAGGSTSVRMLWENFPKFVLGFLVLVGLASLGAFSPAQQDMISTVVDWLFLLAFVGLGTQIRTAELRATGITPALIVFAAVLLVSVLSLAAALVVL”, for which the protein production entry is reported as “failed”.

Consider “MVAIAQGLPHDLLAPAWQILILGDGSPTRHLQLLTGETTEVDVIDMSAIGHAGDRAPAQLQLIPGPRLRRQVWLRTASGQRLAYATSWWEAAHVDEYLQNRAMPIWTNLAQRKLELYRDIQAVYLGHSETLAAAFGEAGPFWGRHYLFWHDRRPITLIYEVFSPYLCRYLGPMGSTAYWANSALPFALEHHHHHH”, for which the protein production entry is “failed”.

In the case of “MVAIDYVVIGAGYAGLMCAEALMDKGFKTLVFDMRESGGEIVVFSKLEEFRSKYEKYIEKIEEIRKDIPVDIGTVIKSKPVIINSGNGLKRYEARRVILATGATDTAPVKLNVLSKKIEGIYTLENALREISENNKIGEKVLIAAKDDVIVKLAESQLSDLGYDVEISELTNDIQVIGKERVEGVEISGVRYSCDTLVVYGGRNPFNPLKLRGTPVGNVVTCTYDYSKVEENVKNFLAKILEHHHHHH”, the protein production result is reported as “failed”.

Take “MVAKDYPFYLTVKRANCSLEAPLGSGVAKDEEPSNKRVKPLSRVTSLANLIPPVKTTPLKRFSQTLQRSISFRSESRPDILAPRAWSRNATSSSTKRRDSKLWSETFDVCVNQVLTAKEIKRQEAIFELSQGEEDLIEDLKLAKKAYHDPMLKLSIMTEQELNQIFGTLDSLIPLHEELLSQLRDVRKPDGSTEHVGPILVGWLPCLSSYDSYCSNQVAAKALLDHKKQDHRVQDFLQRCLESPFSRKLDLWNFLDIPRSRLVKYPLLLREILRHTPNDNPDQQHLEEAINIIQGIVAEINTKTGESECRYYKERLLYLEEGQKDSLIDSSRVLCCHGELKNNRGVKLHVFLFQEVLVITRAVTHNEQLCYQLYRQPIPVKDLTLEDLQDGEVRLGGSLRGAFSNNERVKNFFRVSFKNGSQSQTHSLQANDTFNKQQWLNCIRQAKETVLSAAGQAGLLDSEGLVQGPGTENREPQGETKLEQMDQSDSESDCSMDTSEVSLECERMEQTDASCANSRPEESV”: the protein production result was “not failed”.

On to “MVAPLEIKNSNAFCFFPVSFASSRFPWLLKTLVMILGLATVVFMFRSLALTAEFGTFKPAFPKPGPVDPVLKLLSEEHLRTLFTYSDIWLFPKNQCDCESGKQQMKYKYQNAYNQKDLPAVNARRQAEFEHFQRREGLPRPPPLLASPNLPFGYPVHGVEVMPLHTILIPGLQYEGPDAPVYEVTLKASLGTLNTLADVSDNEVQGRGQRQLSISTRHRKVLNFILQHVTYTSTVYHLHKVDIVSMESKSSVAKFPVTIKHQTVPKLYDPGPERKLRNLVTIATKTFLRPHKFKILLQSIRKYYPDLTVIVTDDSKEPLEIKDDYVEYYPMPFGKGWFAGRNLAISQVTTKYVLWVDDDFLFSNKTKIEVLVDVLEKTELDVVGGSVQGNTFQFRLLLERSENGDCLHQRWGSFQALDGFPGCTLASGVTNFFLAHTEQLRRVGFDPALQRVAHREFFIDGLGSLLVGSCPGVTVDHQTRTPSKDPKLAALEMSYAKYRTNTNSQVQFKLALHYFKNHLYCAT”, for which the protein production result was “failed”.

For “MVDAASTGLFLDAAGMKALGAAIAIAVTGLASAIAEKDIGTAAIGAMAENEGLFGKGLILTVIPETIVIFGLVVALLINQ”, the protein production entry is “failed”.

“MVDIHSHIIPGIDDGSNSLETTLKMMEIANEAGLTKMVATSHYFRGRFENSISAITSEAEKLNSIFKKKAVDIEVIPGQEVFIDNHTLEAHKNGIIGCIRDTNYMLVEFDMMSLLENAADILYEIQIRGIKPIIAHPERYTYIQRDLYKINDLIDENIYFQVNAGSIEGLFGKTVQKTAIKLIEEGLVSFIASDAHSAGKRCPGYEGALKLVAKIDSVLPGKFVKNADLLIENQEIKARSQKLKRKKGFFTFFK”: the protein production entry is given as “failed”.

In the case of “MVDLVAKLKRGAPMLALLIVSTVLAGCSSSTAIKGSKDEGLRLARLLRDQGRVEAATEVYARLDSRDALKGAEMLEYASVAALARSPQQTLELYGRARQALGGDTNKMTPGEALAVCLGMGRTQLALGRNAMAQTDFACALKAQPNDAGALNGMGVVMDASGKHAEARQLFEKALQVNPADVAALNNLALSWLASGNTDKAISLLRSVDESNATSRLNLALAYLSGGRDDEARSALATIAQPQRIDGLMDELNQRLQQMQKDKSRGEALLLSSRQRLQLSAPE”, the protein production result is given as “failed”.

Regarding “MVDYHYFKSKLNHFYGRYVGYNQRPVFFDIDQTFPELNHITRHFPDIKREFENVQANVKEFPRYHDIDPGESAISNTTEKNWNVFMLYLLGYQLKEARLLCPELCNLLEGIPHLIQAFFSILEPGKSIPLHEGPYIGYLRYHLGIHVPQNNPPQILVNNQTYTWKEGEAVLFDDSWPHEVRNTSDDYRAVLIIDVLRPMPFLPQLVNQFVTHVIARYFYGRKVMKRAMQYGGEVKPLALLEHHHHHH”, the protein production result was “failed”.

With “MVETGHHHQHPPAPAAAGHPPVPSMAMARNMGTTWPPAEQLHHLQYCIHSNPSWHETVVLAFQHYIVMLGTTVLIANTLVSPMGGDPGDKARVIQTILFMSGINTLLQTLIGTRLPTVMGVSFAYVLPVLSIIRDYNNGQFDSEKQRFRHTMRTVQGSLIISSFVNIIIGYGQAWGNLIRIFSPIIVVPVVSVVSLGLFLRGFPLLANCVEIGLPMLILLIITQQYLKHAFSRISMILERYALLVCLAIIWAFAAILTVSGAYNNVSTATKQSCRTDRAFLMSSAPWIRIPYPFQWGTPIFKASHVFGMFGAAIVASAESTGVFFAASRLAGATAPPAHVVSRSIGLQGIGVLLEGIFGSITGNTASVENVGLLGLTRIGSRRVVQVSTFFMIFFSIFGKFGAFFASIPLPIFAGVYCILLGIVVAVGISFIQFTDTNSMRNMYVIGVSLFLSLSIAQYFLANTSRAGYGPVRTAGGWFNDILNTIFASAPLVATILATILDNTLEARHASDDARGIPWWKPFQHRNGDGRNDEFYSMPLRINELMPTRFL”, the protein production result is “failed”.
